Publication PMC6325239 (Nature Communications, 2019)

Target: T1, Munc13-1 MUN domain (residues 933–1407, EF, 1453–1531) (rat, UniProt Q62768 933-1407; Q62768 1453-1531)
T1 construct: Munc13-1, rat, residues 933-1407; linker that replaces residues 1408-1452; Munc13-1, rat, residues 1453-1531; Used in native PAGE, crystallization and, as far as told, fluorescence anisotropy; also called the MUN domain; source: E. coli BL21 DE3, pGEX-KG, purified (glutathione Sepharose, thrombin, SEC, ion exchange)
Assay: crystal structure; MUN crystals (20% PEG 3350, 0.1 M MES pH 5.8–6.3, 0.2 M Mg(NO3)2, 4 °C) soaked with the LR peptide at 1:4 (MUN:peptide); 2.8 Å
Settings: both partners purified

binding result: binds
B1: Syb2 linker region peptide (residues 75–93 of Syb2) (peptide)
peptide: SQFETSAAKLKRKYWWKNL
notes: synaptobrevin-2 (Syb2), residues 75-93; also called LR; Syb2 peptide; source: synthetic peptide (Scilight Biotechnology, Beijing)
